Reference: patent US20170306050

Key:
α1-antitrypsin = α1-antitrypsin (UniProt P01009)
Chain of α1-antitrypsin (P01009 whole entry, looked up): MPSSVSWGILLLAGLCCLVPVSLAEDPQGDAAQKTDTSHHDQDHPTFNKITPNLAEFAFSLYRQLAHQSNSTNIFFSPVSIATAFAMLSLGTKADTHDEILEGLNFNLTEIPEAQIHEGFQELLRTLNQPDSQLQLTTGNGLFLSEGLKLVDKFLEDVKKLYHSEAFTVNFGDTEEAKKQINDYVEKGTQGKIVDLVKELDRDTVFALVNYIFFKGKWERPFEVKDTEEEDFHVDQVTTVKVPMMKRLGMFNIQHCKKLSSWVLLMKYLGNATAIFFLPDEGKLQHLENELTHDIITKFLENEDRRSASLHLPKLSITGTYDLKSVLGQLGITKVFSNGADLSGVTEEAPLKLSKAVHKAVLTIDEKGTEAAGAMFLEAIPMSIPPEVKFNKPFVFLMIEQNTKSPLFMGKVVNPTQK

Chain of active MMP3 (chain, as listed by the source): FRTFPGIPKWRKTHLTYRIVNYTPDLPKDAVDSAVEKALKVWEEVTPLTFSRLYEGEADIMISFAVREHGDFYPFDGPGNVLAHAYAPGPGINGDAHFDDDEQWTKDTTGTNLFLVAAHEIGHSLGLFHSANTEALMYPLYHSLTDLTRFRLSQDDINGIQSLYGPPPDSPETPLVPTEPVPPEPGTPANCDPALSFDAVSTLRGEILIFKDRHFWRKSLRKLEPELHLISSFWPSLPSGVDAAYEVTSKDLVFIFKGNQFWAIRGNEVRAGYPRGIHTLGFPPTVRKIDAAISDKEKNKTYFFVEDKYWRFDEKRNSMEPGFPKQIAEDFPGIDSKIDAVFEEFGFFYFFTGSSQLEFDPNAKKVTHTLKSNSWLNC
Chain of active MMP9 (chain, as listed by the source): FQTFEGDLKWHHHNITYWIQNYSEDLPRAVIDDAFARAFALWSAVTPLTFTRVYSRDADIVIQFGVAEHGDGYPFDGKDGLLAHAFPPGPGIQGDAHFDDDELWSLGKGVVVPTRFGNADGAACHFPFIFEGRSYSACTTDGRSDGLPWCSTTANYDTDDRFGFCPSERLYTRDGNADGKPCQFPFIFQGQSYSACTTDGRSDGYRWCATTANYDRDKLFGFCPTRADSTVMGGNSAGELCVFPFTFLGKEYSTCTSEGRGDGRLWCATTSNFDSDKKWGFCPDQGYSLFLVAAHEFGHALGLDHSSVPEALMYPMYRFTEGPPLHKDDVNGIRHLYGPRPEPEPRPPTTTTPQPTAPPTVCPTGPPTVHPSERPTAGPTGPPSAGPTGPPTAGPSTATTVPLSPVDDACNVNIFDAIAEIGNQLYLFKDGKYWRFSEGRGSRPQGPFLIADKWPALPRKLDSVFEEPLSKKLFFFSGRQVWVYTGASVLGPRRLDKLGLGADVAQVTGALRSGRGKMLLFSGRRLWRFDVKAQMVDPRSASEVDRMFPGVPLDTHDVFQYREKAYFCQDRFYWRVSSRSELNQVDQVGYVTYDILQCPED

Substance | activation of pro-MMP9 (appearance of the active MMP9 fragment by Li-Cor Western blot and increase in gelatinolytic activity) (Pro-MMP9) | cleavage of α1-antitrypsin by Western blot (α1-antitrypsin)
active MMP3 | Both proteases activated MMP9 in a dose-dependent manner | 
active MMP9 |  | In the presence of active MMP9 alone, α1-antitrypsin was cleaved from the active form to the inactive form
active Pseudomonas elastase | Both proteases activated MMP9 in a dose-dependent manner | 
